Key:
[1] = target: T1, human PD-1 protein (Acro, Catalog No. PD1-H5221) (human, UniProt Q15116 25-167); assay: ELISA, plate coated with human PD-1 protein
T1 construct: Bought protein; also called human PD1-his; not shown: his tag
Description: ELISA was used to determine the activity of the trispecific antibodies binding to the PD-1 protein: 1 μg/mL human PD-1 protein (Acro, Catalog No.: PD1-H5221) was used to coat a high-adsorption 96-well ELISA plate and incubated at 4° C. overnight. On the next day, the plate was washed three times with PBST solution and blocked with 1% BSA-PBS solution at 37° C. for 1 hour. At the same time, 3-fold gradient dilutions of the antibody were prepared with 1% BSA-PBS solution, with a starting concentration of 10 nM. The antibodies of each gradient concentration were added to the blocked 96-well ELISA plate at 100 µL/well in triplicate and incubated at 37° C. for 1 hour. The plate was then washed three times with 0.05% PBST solution, and 100 μL/well of HRP-labeled secondary antibody (Sigma, Catalog No.: A0170) diluted at 1:5000 was added to the ELISA plate and incubated at 37° C. for 1 hour. The plate was washed three times with 0.05% PBST solution and developed with TMB. The absorbance of the 96-well ELISA plate at 450 nm was detected by an ELISA reader. The OD₄₅₀ value was fitted using a four-parameter model to calculate the EC₅₀ value of each antibody binding to PD-1.

[2] = target: T2, human PD-1 on the cell surface (human, UniProt Q15116 25-288); assay: flow cytometry, 293T-hPD-1 cells, batch FACS#1
T2 construct: whole, on cells; also called cell surface PD-1
T2 sequence (Q15116 25-288): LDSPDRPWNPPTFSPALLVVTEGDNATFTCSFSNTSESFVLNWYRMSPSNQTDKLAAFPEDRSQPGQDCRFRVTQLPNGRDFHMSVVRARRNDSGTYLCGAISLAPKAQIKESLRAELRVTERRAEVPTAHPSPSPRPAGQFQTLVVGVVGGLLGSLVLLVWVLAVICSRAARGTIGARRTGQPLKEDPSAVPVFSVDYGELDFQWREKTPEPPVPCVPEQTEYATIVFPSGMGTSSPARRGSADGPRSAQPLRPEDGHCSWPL
Description: (§1) After centrifugation at 300 g for 5 minutes, the supernatant was discarded. The antibodies were serially diluted 3-fold with FACS buffer to obtain two gradient series solution FACS #1 and FACS #2, with the starting concentration of 200 nM (Table 5, FACS #1) or 100 nM (Table 5, FACS #2, FIG. 2), respectively. Then 100 μL/well was added to a 96-well plate in triplicate, mixed, and incubated at 4° C. for 60 min. The plate was centrifuged and washed three times with FACS buffer. 100 μL/well of 1:800 diluted AF647-anti-hIgG(H+L) (Jackson, Catalog No.: 109-605-003) was added and incubated at 4° C. for 50 minutes. After washing the plate three times with FACS buffer, 100 μL/well of FACS buffer was added to resuspend the cells, and the fluorescence signal was detected on a flow cytometer (BECKMAN COULTER cytoFLEX). The binding activity was fitted using a four-parameter model to calculate the EC₅₀ value of each antibody binding to PD-1.

[3] = target: T2, human PD-1 on the cell surface; assay: flow cytometry, 293T-hPD-1 cells, batch FACS#2
Description: as §1

[4] = target: T2, human PD-1 on the cell surface; assay: flow cytometry, 293T-hPD-1 cells, comparison with pembrolizumab
Description: as §1

[5] = target: human PD-1 protein (Acro, PD1-H5257) (human, UniProt Q15116 25-167); assay: competitive ELISA, PD-1 coated, biotin-PD-L1 as labelled ligand
Chain of human PD-1 protein (Acro, PD1-H5257) (Q15116 25-167 limits assumed): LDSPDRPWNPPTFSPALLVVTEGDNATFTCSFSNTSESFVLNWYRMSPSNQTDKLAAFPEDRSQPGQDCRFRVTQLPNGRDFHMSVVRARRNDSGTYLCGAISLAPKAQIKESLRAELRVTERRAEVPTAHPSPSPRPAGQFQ
Description: The next day, the plate was washed three times with PBS solution and blocked with 1% BSA-PBS solution at 37° C. for 1 hour. […] 100 μL of the antibody-protein mixture was added to each well of the blocked 96-well ELISA plate and incubated at 37° C. for 1 hour. After washing four times with PBST, 100 μL of Strep-HRP (BD, Catalog No. 554066) diluted 1:5000 was added to each well of the ELISA plate and incubated at 37° C. for 1 hour. After washing 4 times with PBST, TMB was used for color development. The absorbance at 450 nm and 630 nm was detected by a microplate reader, and OD450-OD630 was calculated. The fluorescence intensity was fitted using a four-parameter model, and the IC₅₀ value of the blocking activity of each antibody was calculated.

[6] = target: T2, human PD-1 on the cell surface; assay: flow cytometry competition, 293T-hPD-1 cells, biotin-human PD-L1
Description: 50 μL of antibody solution serially diluted 3-fold in FACS buffer was added in triplicate, with a starting concentration of 200 nM. After mixing, incubated at 4° C. for 60 minutes. After washing three times with FACS buffer, 100 μL/well of 1:800 diluted PE Streptavidin was added and incubated at 4° C. for 50 min. After washing three times with FACS buffer, 150 μL/well of PBS was added to resuspend the cells, and the fluorescence signal was detected on a flow cytometer (BECKMAN COULTER cytoFLEX). The four-parameter model was used to fit the binding activity and the IC₅₀ value of the blocking activity of each antibody was calculated.

[7] = target: T2, human PD-1 on the cell surface; assay: flow cytometry on activated human T cells (CD3+), PE anti-human IgG Fc
Description: (§2) Human peripheral blood mononuclear cells (PBMCs, Miaoshun (Shanghai) Biotechnology Co., Ltd., Catalog No.: A19K154025) were rapidly thawed in a 37° C. water bath, resuspended in T cell isolating solution, and counted. After centrifugation at 400 g for 10 minutes, the supernatant was removed and the cells were resuspended to 5×10⁷ cells/mL with T cell separation buffer. T cells were isolated according to the procedure of a T cell isolation kit (Stemcell, Catalog No.: 19051), and the obtained T cells were resuspended in culture medium. The cells were counted using NucleoCounter NC-200 and the T cell density was adjusted to approximately 1×10⁶ cells/mL. Dynabeads containing anti-CD3 and anti-CD28 antibodies (Invitrogen™, Catalog No.: 11132D) and 10 ng/ml hIL-2 (Peprotech, Catalog No.: 200-02) were added and cultured in a 37° C., 5% CO₂ incubator for 3 days. After removing Dynabeads and supernatant, the activated T cells were resuspended in FACS buffer. The cell density was adjusted to about 1×10⁶ cells/mL, and 100 μL of cell solution was added into a 96-well U-bottom plate, 1×10⁵ cells/well. After centrifugation at 500 g for 5 minutes, the supernatant was discarded and 100 μL of the trispecific antibody solution of the present application serially diluted 3-fold with FACS buffer was added in triplicate, with a starting concentration of 200 nM. After mixing, incubated at 4° C. for 60 minutes. After centrifugation and washing three times with FACS buffer, 100 μL/well of PE anti-human IgG Fc (Biolegend, Catalog No.: 366903) was added and incubated at 4° C. for 50 minutes. After washing the plate three times with FACS buffer, 100 μL/well of BV421 anti-human CD3 antibody (OKT3) (Biolegend, Catalog No.: 317344) was added and incubated at 4° C. for 50 minutes. After washing the plate three times with FACS buffer, 70 μL/well of PBS solution was added to resuspend the cells, and the fluorescent signal on CD3 T cells was detected on a flow cytometer (BD Cellesta). The binding activity was fitted using a four-parameter model, and the EC₅₀ value of each antibody binding to T cells was calculated.

[8] = target: T1, human PD-1 protein (Acro, Catalog No. …); assay: BLI (Octet RED96e), antibody on AHC sensor, antigen as analyte 6.25-100 nM, 1:1 model
Description: Octet® RED96e (ForteBio) was used to detect the affinity of trispecific antibodies to human PD-1, CTLA-4 and VEGFA. The specific method was as follows: the AHC Sensor was immersed in PBST (PBS containing 0.02% Tween) buffer for 10 minutes to activate the Sensor. The ligand (antibody to be tested) was diluted to 5 μg/mL with PBST buffer. […] The diluted ligand and analyte were added to the corresponding wells at 200 μL/well in triplicate. Program parameter settings: loading: 180 s, association: 180 s, dissociation: 600 s, regeneration: Gly-HCl pH 1.5, 30s, regeneration 3 times. […] Curve fit acceptance criteria: Full R\hat{ }2≥0.95.

[9] = target: T2, human PD-1 on the cell surface; assay: blocking of PD-L1 binding to cell surface PD-1, comparison with pembrolizumab; comparison run with pembrolizumab, cell surface PD-1
[10] = target: T3, human CTLA-4 on the cell surface (human, UniProt P16410 36-223); assay: flow cytometry, CHO-hCTLA-4 cells, batch FACS#3
T3 construct: whole, on cells; also called CHO-hCTLA-4 cells; CHOK1-hCTLA4 cells
T3 sequence (P16410 36-223): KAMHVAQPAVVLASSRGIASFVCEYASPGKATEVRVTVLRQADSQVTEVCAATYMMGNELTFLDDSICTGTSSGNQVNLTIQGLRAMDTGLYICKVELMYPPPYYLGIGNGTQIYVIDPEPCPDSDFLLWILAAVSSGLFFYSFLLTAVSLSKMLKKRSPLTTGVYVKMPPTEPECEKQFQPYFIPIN

[11] = target: T3, human CTLA-4 on the cell surface; assay: flow cytometry competition, CHO-hCTLA-4 cells, biotin-human CD80
Description: CHO-hCTLA-4 cells were obtained by trypsin digestion, washed twice with PBS containing 2% FBS (FACS buffer), and resuspended in FACS buffer. 200 μL of the cells were added to a 96-well U-bottom plate, approximately 2×10⁵ cells/well. After centrifugation at 300 g for 5 minutes, the supernatant was discarded. […] After washing three times with FACS buffer, 100 μL/well of 1:800 diluted PE Streptavidin was added and incubated at 4° C. for 50 min. After washing three times with FACS buffer, 150 μL/well of PBS was added to resuspend the cells, and the fluorescence signal was detected on a flow cytometer (BECKMAN COULTER cytoFLEX). The four-parameter model was used to fit the binding activity and the IC₅₀ value of the blocking activity of each antibody was calculated.

[12] = target: T3, human CTLA-4 on the cell surface; assay: flow cytometry on activated human T cells (CD3+), PE anti-human IgG Fc
Description: as §2

[13] = target: T3, human CTLA-4 on the cell surface; assay: flow cytometry competition, 293T-hPD-1-hCTLA-4 cells (PD-1 co-expressed), biotin-human CD80
Description: PD-1 and CTLA-4 are co-expressed on functionally exhausted T cells in the tumor microenvironment, and the expression level of PD-1 is higher than that of CTLA-4. […] 200 μL of the cells were added to a 96-well U-bottom plate, approximately 1.4×10⁵ cells/well. After centrifugation at 300 g for 5 minutes, the supernatant was discarded. […] After washing three times with FACS buffer, 100 μL/well of 1:800 diluted PE Streptavidin was added and incubated at 4° C. for 50 min. After washing three times with FACS buffer, 150 μL/well of PBS was added to resuspend the cells, and the fluorescence signal was detected on a flow cytometer (BECKMAN COULTER cytoFLEX). The binding activity was fitted using a four-parameter model, and the IC₅₀ value of the blocking activity of each antibody was calculated.

T1 sequence (Q15116 25-167 limits assumed): as the sequence (Q15116 25-167 limits assumed) above

Binder	EC50 [1]	EC50 [2]	EC50 [3]	EC50 [4]	IC50 [5]	IC50 [6]	EC50 [7]	Kd [8]	IC50 [9]	EC50 [10]	IC50 [11]	EC50 [12]	IC50 [13]
CQ1-3/1-11-hIgG4 antibody (antibody, V domains shown, also called anti-PD-1 antibody CQ1-3/1-11) VH: EVQLVESGGGLVQPGGSLRLSCAASGFTFSSYGMSWVRQAPGKGLEWVSTISGGGRDTYYPDSVKGRFTISRDNSKNTLYLQMNSLRAEDTAVYYCARQNGITWFADWGQGTLVTVSS VL: DIQMTQSPSSLSASVGDRVTITCRASESVDNYGISFMNWYQQKPGKAPKLLIYAASNQGSGVPSRFSGSGSGTDFTLTISSLQPEDFATYYCQQSKEVPWTFGGGTKVEIKR	0.041 nM	2.8 nM	1.12 nM	4.34 nM	0.731 nM	4 nM	0.244 nM	1.96 nM	3.19 nM				
202F1-hIgG4 antibody (antibody, V domains shown) VH: EVQLLESGGGLVQPGGSLRLSCAASGSIFSINHMAWYRQAPGKQRELVAGVNSRGTTNYVDSVKGRFTISRDNSKNTLYLQMNSLRAEDTAVYYCRALGGAVAAWGQGTLVTVSS										2.31 nM	10.1 nM	1.46 nM	4.74 nM

— patent US20260116960A1 (SHANGHAI HONGCHENG BIOPHARMACEUTICAL, published 2026)
